Experimental data from paper PMC7201923.

Molecular target: KPNA2 (UniProt P52292)
Test: anti-FLAG co-IP, immunoblot
Conditions: sites S97

IRF3 (from UniProt Q14653)
binding against the reference: stronger
